Series [1] addresses amyloidogenic peptide Aβ10-35 (UniProt P05067). The series can be described thus: cell-based or functional assay.
Series [2] deals with the molecule itself. Put plainly: preliminary studies, self-aggregation (data not shown).

*1 amine or outer side, *2 acyl side, *3 side chain or, on linkers, in order; H or OH if unused. Where no end group is shown, it is not given here. [ ]: non-standard residue; d: D form. Dbzg = C-alpha,alpha-dibenzylglycine, O=C(C(Cc1ccccc1)(Cc1ccccc1)N[*:1])[*:2]; Dibg = C-alpha,alpha-diisobutylglycine, CC(C)CC(CC(C)C)(N[*:1])C(=O)[*:2]; Dpg = CCCC(N)(CCC)C(=O)O

Chain of amyloidogenic peptide Aβ10-35 (P05067 681-706): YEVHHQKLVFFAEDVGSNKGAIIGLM

In series [1], “AMY-1: Lys-Dibg-Val-Dbzg-Phe-Dpg-(Lys)6-NH2 (peptide)” registered an inhibition of aggregation (amyloid fibril formation) of 5 µM.

B1: AMY-2: (Lys)7-Dibg-Val-Dbzg-Phe-Dpg-NH2 (peptide)
peptide: KKKKKKK[Dibg]V[Dbzg]F[Dpg]-NH2
modifications: N-terminus assumed
SMILES: CCCC(CCC)(NC(=O)[C@H](Cc1ccccc1)NC(=O)C(Cc1ccccc1)(Cc1ccccc1)NC(=O)[C@@H](NC(=O)C(CC(C)C)(CC(C)C)NC(=O)[C@H](CCCCN)NC(=O)[C@H](CCCCN)NC(=O)[C@H](CCCCN)NC(=O)[C@H](CCCCN)NC(=O)[C@H](CCCCN)NC(=O)[C@H](CCCCN)NC(=O)[C@@H](N)CCCCN)C(C)C)C(N)=O
notes: Synthetic beta-strand mimic based on Abeta16-21 (KLVFFA), with the oligolysine stretch at the N-terminus
Turning to B1, the binding result in series [2] is on record as “binds”.

The values above are taken from patent US20050119187A1 (BOARD OF SUPERVISORS OF LOUISIANA STATE UNIVERSITY AND …, published 2005).
